Laboratory results: patent EP1728516A1

Columns and labels:
Assay in all cases: cell-based or functional assay
[1] = target: endogenous wild-type PLB of cardiac myocytes or SR (species not stated at these places) (Rattus norvegicus (Rat)) (UniProt P61016)
[2] = target: endogenous wild-type PLB of adult rabbit myocytes (rabbit) (UniProt P61015)
[3] = target: endogenous wild-type PLB of rat cardiac myocytes (rat) (UniProt P61016)

UniProt P61015, sequence (P61015 whole entry): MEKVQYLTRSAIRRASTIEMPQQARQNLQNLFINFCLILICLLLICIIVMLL

- decrease in RT50 after plasmid transfection of myocytes [1]: 43%
- half-time for decay (RT50) of the indo 1 Ca2+ transient, neonatal myocytes (LacZ: 0.28 seconds) [1]: 0.2 s
- half-time for decay (RT50) of the indo 1 Ca2+ transient, percent of LacZ [1]: 73%
- decrease in RT50 against the LacZ control [2]: 25%
- increase in +dL/dt against the LacZ control [2]: 115%
- increase of fractional shortening against the LacZ control [2]: 74%
- lowering of the EC50 of SR Ca2+ uptake, adult rat myocytes [3]: 36%
Substance: PLB double point mutant K3E/R14E
